The source of these data is patent US20160061835A1 (BAYLOR COLLEGE OF MEDICINE, published 2016).

The target in this experiment is T1, Norwalk virus (NV) virus-like particle (Norwalk virus (genotype GI.1), UniProt Q83884 1-530; Q83885 1-212).
T1 construct: also called NV-VLP; NV-VLPs
T1 sequence 1: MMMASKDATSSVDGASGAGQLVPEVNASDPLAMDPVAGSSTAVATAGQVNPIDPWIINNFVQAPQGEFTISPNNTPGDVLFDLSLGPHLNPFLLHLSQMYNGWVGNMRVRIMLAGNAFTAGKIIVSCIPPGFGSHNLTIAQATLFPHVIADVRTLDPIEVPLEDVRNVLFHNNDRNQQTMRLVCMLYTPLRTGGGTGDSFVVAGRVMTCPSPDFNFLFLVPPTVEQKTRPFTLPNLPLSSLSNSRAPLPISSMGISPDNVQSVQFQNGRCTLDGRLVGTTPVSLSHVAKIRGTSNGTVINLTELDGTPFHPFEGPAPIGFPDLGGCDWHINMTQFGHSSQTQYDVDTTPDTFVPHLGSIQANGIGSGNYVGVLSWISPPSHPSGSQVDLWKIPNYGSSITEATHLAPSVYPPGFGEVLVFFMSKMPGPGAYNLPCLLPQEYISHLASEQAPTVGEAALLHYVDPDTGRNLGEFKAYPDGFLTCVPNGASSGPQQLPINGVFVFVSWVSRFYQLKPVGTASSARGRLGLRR
T1 sequence 2: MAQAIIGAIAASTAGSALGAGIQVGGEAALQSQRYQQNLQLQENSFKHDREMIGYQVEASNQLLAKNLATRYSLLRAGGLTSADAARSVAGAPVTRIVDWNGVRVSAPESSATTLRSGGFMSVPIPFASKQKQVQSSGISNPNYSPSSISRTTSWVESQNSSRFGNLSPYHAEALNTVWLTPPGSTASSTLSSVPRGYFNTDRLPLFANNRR
The experiment is described as follows: capture ELISA: NV-VLP captured by immobilized polyclonal antibody, M13 phage antibody detection. For orientation: ELISA stands for enzyme-linked immunosorbent assay.

B1: non-peptide displaying M13 phage (other)
chain: AETVESCLAKPHTENSFTNVWKDDKTLDRYANYEGCLWNATGVVVCTGDETQCYGTWVPIGLAIPENEGGGSEGGGSEGGGSEGGGTKPPEYGDTPIPGYTYINPLDGTYPPGTEQNPANPNPSLEESQPLNTFMFQNNRFRNRQGALTVYTGTVTQGTDPVKTYYQYTPVSSKAMYDAYWNGKFRDCAFHSGFNEDPFVCEYQGQSSDLPQPPVNAGGGSGGGSGGGSEGGGSEGGGSEGGGSEGGGSGGGSGSGDFDYEKMANANKGAMTENADENALQSDAKGKLDSVATDYGAAIDGFIGDVSGLANGNGATGDFAGSNSQMAQVGDGDNSPLMNNFRQYLPSLPQSVECRPFVFSAGKPYEFSIDCDKINLFRGVFAFLLYVATFMYVFSTFANILRNKES
notes: Whole phage particle used as negative control; also called M13 control phage
As for B1, the binding result is on record as “no binding”.
